Measured values: paper doi:10.1101/2023.08.01.551478, “A feedback control mechanism governs the synthesis of lipid-linked precursors of the bacterial cell wall” (bioRxiv, 2023)

Biological target: the molecule itself
Assay: cryo-EM structure; YES complex of EcMraY(T23P), protein E and SlyD, obtained with the methodologies of ref. 31; focused refinement of MraY alone; processed with cryosparc v3.2.0

B1: E. coli MraY(T23P) (enzyme)
chain: MLVWLAEHLVKYYSGFNVFSYLPFRAIVSLLTALFISLWMGPRMIAHLQKLSFGQVVRNDGPESHFSKRGTPTMGGIMILTAIVISVLLWAYPSNPYVWCVLVVLVGYGVIGFVDDYRKVVRKDTKGLIARWKYFWMSVIALGVAFALYLAGKDTPATQLVVPFFKDVMPQLGLFYILLAYFVIVGTGNAVNLTDGLDGLAIMPTVFVAGGFALVAWATGNMNFASYLHIPYLRHAGELVIVCTAIVGAGLGFLWFNTYPAQVFMGDVGSLALGGALGIIAVLLRQEFLLVIMGGVFVVETLSVILQVGSFKLRGQRIFRMAPIHHHYELKGWPEPRVIVRFWIISLMLVLIGLATLKVR
notes: MraY (phospho-MurNAc-pentapeptide transferase) of Escherichia coli with the T23P substitution, as it stood in the YES complex for cryo-EM; also called EcMraY(T23P)
  stoichiometry N: 2
